Test results published in the supplement of paper PMC9732359.
± gives the uncertainty stated by the source.

Assay: protein stability index of a GFP-peptide fusion (yeast GPS) (PSI 1-4); higher = more stable; sorted into four equal gates, so the index is relative within each strain
Procedure, shortened: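 Yeast carrying a pooled library were grown to mid-log phase in leucine-free medium. Each library plasmid expresses Cherry and has a tiled 17-residue yeast protein peptide fused downstream of GFP. Cells were sorted into four equal gates by GFP/Cherry ratio, and plasmids from each gate were PCR-amplified, Illumina-sequenced and assigned to strains by barcode. Summing, across gates, the read frequency times the gate number gave each peptide's protein stability index.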

| Sequence | protein stability index (doa10∆) | protein stability index (pdr5∆) | protein stability index (san1∆) | protein stability index (ubr1∆) |
| --- | --- | --- | --- | --- |
| FVDLNEKELQNEIKQLG [SRB4] | 2.31 ± 0.072 | 2.41 ± 0.17 | 2.13 ± 0.2 | 2.78 ± 0.14 |
| VAMCFVINKLDRLILDL [SNU114] | 2.23 ± 0.055 | 2.24 ± 0.056 | 2.15 ± 0.096 | 2.77 ± 0.04 |
| GVNGYIWLRKTSQMDLA [RRP4] | 3.07 ± 0.077 | 2.74 ± 0.068 | 3.07 ± 0.097 | 2.9 ± 0.098 |
| VSFRTHNSHLSLNYKFT [SRP21] | 3.01 ± 0.048 | 2.99 ± 0.046 | 3 ± 0.051 | 3.15 ± 0.039 |
| NEISRNGTMINEVIDKL [PCI8] | 2.59 ± 0.067 | 2.51 ± 0.066 | 2.48 ± 0.072 | 2.78 ± 0.065 |
| RMLSFEDISKATHLPKD [RPN9] | 2.95 ± 0.091 | 3.08 ± 0.08 | 3.15 ± 0.096 | 3.02 ± 0.055 |
| LNSNNSIIGNKNNNYTW [REC8] | 2.86 ± 0.14 | 2.76 ± 0.1 | 2.87 ± 0.07 | 2.41 ± 0.072 |
| DELERILKELSNLETLY [RPB4] | 3.21 ± 0.092 | 3.33 ± 0.082 | 3.21 ± 0.072 | 3.1 ± 0.12 |
| RRRDGVFLYFEDNAGVI [RPL23A] | 2.68 ± 0.13 | 2.83 ± 0.069 | 2.37 ± 0.11 | 2.9 ± 0.056 |
| RAVLKSFLESVIRDSVT [HHF1] | 2.62 ± 0.063 | 2.44 ± 0.052 | 1.86 ± 0.063 | 2.12 ± 0.049 |
| QSNINTNAPLRTLNIQP [YIL149C/MLP2] | 2.61 ± 0.11 | 2.36 ± 0.09 | 1.99 ± 0.086 | 2.19 ± 0.076 |
| GYLITPPKHTELLLTTL [SSN2] | 1.85 ± 0.062 | 1.86 ± 0.052 | 1.54 ± 0.11 | 1.54 ± 0.031 |
| KLSQYVQEMALGGPITK [FAS2] | 2.6 ± 0.083 | 2.74 ± 0.055 | 2.96 ± 0.049 | 2.53 ± 0.031 |
| FDFLMNMPNCDYLTLNK [RPN2] | 2.76 ± 0.054 | 2.31 ± 0.068 | 2.07 ± 0.076 | 1.74 ± 0.039 |
| MSDPSSINGGIVVAMTG [PUP3] | – | 2.39 ± 0.21 | – | – |
| AEVQSLFQDGSASLHTR [RRP4] | 2.57 ± 0.13 | 2.78 ± 0.16 | 2.85 ± 0.1 | – |
| ITSFGFGQKGGQAIVVH [FAS2] | 1.28 ± 0.074 | 1.44 ± 0.036 | 1.52 ± 0.088 | 1.69 ± 0.046 |
| RGFSKDLKSKADKLADM [RRP6] | 3.34 ± 0.28 | – | – | – |
| NVSLIKIEGVATPQEAQ [RPL33B] | 2.76 ± 0.07 | 2.78 ± 0.096 | 2.92 ± 0.074 | 2.61 ± 0.055 |
| AALAPKIGPLGLSPKKV [RPL12A] | 2.66 ± 0.13 | 3.08 ± 0.097 | 3.02 ± 0.097 | 3.26 ± 0.07 |

| Sequence | protein stability index (doa10∆) | protein stability index (pdr5∆) | protein stability index (san1∆) | protein stability index (ubr1∆) |
| --- | --- | --- | --- | --- |
| IRPTELRLPFSAAMSID [PRP8] | 1.93 ± 0.049 | 1.98 ± 0.037 | 1.78 ± 0.057 | 2.24 ± 0.037 |
| ALSIADDASSAELLGRV [RPC53] | 3.02 ± 0.16 | 2.92 ± 0.26 | 3.21 ± 0.18 | 3.12 ± 0.085 |
| NLSAFKIVYIAPLKALV [BRR2] | 1.55 ± 0.054 | 1.54 ± 0.051 | 1.49 ± 0.12 | 1.56 ± 0.062 |
| VKVHMDSETSDPNEVEI [DIS3] | 3.29 ± 0.089 | 3.5 ± 0.086 | 3.5 ± 0.077 | 3.52 ± 0.088 |
| ALLRVTKSKNKTLIGLQ [POP4] | 2.71 ± 0.055 | 2.18 ± 0.053 | 2.27 ± 0.052 | 2.47 ± 0.049 |
| MADLQKQENSSRFTNVS [YMR153W/NUP53] | 3.23 ± 0.15 | 3.1 ± 0.14 | 2.36 ± 0.24 | 3.31 ± 0.12 |
| ETATLIMNELYRMKGGR [SMC3] | 3.07 ± 0.088 | 3.21 ± 0.12 | 2.82 ± 0.1 | 3.26 ± 0.084 |
| SGVKNDILQSLSGGGHD [CDC53] | 3.09 ± 0.075 | 3.09 ± 0.077 | 2.71 ± 0.068 | 2.8 ± 0.048 |
| QPVNFNRSWDHAYNITF [RPO31] | 2.13 ± 0.12 | 2.37 ± 0.055 | 2.39 ± 0.12 | 2.45 ± 0.047 |
| STLHMLGYTHIAINFTV [RPP1] | 1.5 ± 0.041 | 1.39 ± 0.037 | 1.45 ± 0.067 | 1.55 ± 0.041 |
| QDKEGIPPDQQRLIFAG [RPS31] | 2.95 ± 0.068 | 2.8 ± 0.057 | 3.19 ± 0.035 | 3.15 ± 0.033 |
| DEKEKQLAVANEIIRSL [SIR4] | 2.3 ± 0.048 | 2.25 ± 0.047 | 2.31 ± 0.069 | 1.91 ± 0.047 |
| MAGLMHFKKPDITVHGE [RRP45] | 2.89 ± 0.19 | 2.14 ± 0.13 | 1.76 ± 0.16 | 1.25 ± 0.092 |
| YTSIVQCCEFMTMLTPN [YML103C/NUP188] | 2.13 ± 0.051 | 2.03 ± 0.05 | 1.95 ± 0.062 | 2 ± 0.044 |
| ITYGIIKVPTYIRKLIS [SRB8] | 1.32 ± 0.074 | 1.44 ± 0.091 | 1.42 ± 0.2 | 1.36 ± 0.085 |
| SPDSTVNRSVVVSAVGE [YAR002W/NUP60] | 3.11 ± 0.084 | 2.91 ± 0.088 | 3.28 ± 0.063 | 2.79 ± 0.061 |
| DNVVRFLNEARDKAGRL [RPO21] | 2.48 ± 0.063 | 1.61 ± 0.056 | 2.56 ± 0.14 | 1.76 ± 0.053 |
| TDLMSIVQELLDKNLIK [RPC34] | 3.39 ± 0.21 | 2.74 ± 0.17 | – | 3.15 ± 0.14 |
| ISNYNTKYTDDMATGSN [SRB8] | 3.04 ± 0.1 | 2.52 ± 0.11 | 3.21 ± 0.058 | 2.94 ± 0.085 |
| GRSWDGKEHIVAALVSL [ECM29] | 1.88 ± 0.052 | 2.1 ± 0.063 | 1.56 ± 0.082 | 1.65 ± 0.042 |
